# System: hsRAG1 engineered meganuclease (I-CreI-derived) (artificial (I-CreI backbone, Chlamydomonas reinhardtii?))
# Assay: cell_activity
# Details: HEK-293, meganuclease-driven targeted integration at RAG1; other lines 7-16%; indirect readout of cleavage
substance,measurement,value
human RAG1 locus meganuclease target site,activity (% targeted clones),44

# From US20130045539
